PMC5302063, “In vivo mapping of a dynamic ribonucleoprotein granule interactome in early Drosophila embryos” (FEBS Open Bio, 2016)

Target: T1, recombinant Aub with N-terminal His-, Myc- and 3xFLAG-tags (Drosophila, UniProt O76922 1-866)
T1 construct: Aubergine (Aub), Drosophila; aub cDNA cloned into pFastBac/NT-TOPO; also called FLAG-tagged Aub; Aubergine; source: Sf9 (bacmid from pFastBac/NT-TOPO), purified (anti-c-Myc beads, c-Myc peptide elution); not shown: Myc, N-terminal, kept; 3xFLAG, N-terminal, kept
T1 sequence (looked up): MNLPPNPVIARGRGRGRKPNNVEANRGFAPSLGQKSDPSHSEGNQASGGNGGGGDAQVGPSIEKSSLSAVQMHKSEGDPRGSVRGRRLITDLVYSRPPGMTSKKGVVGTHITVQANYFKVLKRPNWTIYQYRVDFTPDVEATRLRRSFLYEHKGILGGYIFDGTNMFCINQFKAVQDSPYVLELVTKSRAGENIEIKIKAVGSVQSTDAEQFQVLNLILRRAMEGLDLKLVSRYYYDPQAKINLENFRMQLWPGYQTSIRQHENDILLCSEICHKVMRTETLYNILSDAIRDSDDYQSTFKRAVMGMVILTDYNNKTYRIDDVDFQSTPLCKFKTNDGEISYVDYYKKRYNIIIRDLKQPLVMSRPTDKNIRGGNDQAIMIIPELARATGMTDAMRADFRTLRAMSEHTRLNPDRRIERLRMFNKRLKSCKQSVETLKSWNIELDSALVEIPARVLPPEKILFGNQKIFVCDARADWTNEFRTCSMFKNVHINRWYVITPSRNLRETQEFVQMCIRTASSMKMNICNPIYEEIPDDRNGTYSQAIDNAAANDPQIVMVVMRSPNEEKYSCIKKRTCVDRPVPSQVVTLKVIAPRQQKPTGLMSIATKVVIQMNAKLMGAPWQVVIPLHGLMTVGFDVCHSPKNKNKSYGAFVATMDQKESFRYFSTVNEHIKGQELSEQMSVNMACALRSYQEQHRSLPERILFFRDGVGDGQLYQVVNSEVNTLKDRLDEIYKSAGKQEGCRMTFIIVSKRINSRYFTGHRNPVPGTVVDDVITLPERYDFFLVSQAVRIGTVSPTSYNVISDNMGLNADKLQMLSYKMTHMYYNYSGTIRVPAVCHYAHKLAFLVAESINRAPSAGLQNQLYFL
Assay: pull-down; purified FLAG-tagged Aub or FLAG-GFP control bound to anti-FLAG beads; purified Myc-eIF4A added in PBS, 0.05% IGEPAL CA-630, 4 °C, 60 min; western blot with anti-c-Myc
Details: both partners purified

binding result: binds
B1: Myc-tagged eIF4A (enzyme, Drosophila, UniProt Q02748 1-403, looked up)
chain: MDDRNEIPQDGPASMEPEGVIESTWHEVYDNFDDMNLREELLRGIYGYGFEKPSAIQQRAIIPCVRGRDVIAQAQSGTGKTATFSIAILQQIDTSIRECQALILAPTRELATQIQRVVMALGEYMKVHSHACIGGTNVREDARILESGCHVVVGTPGRVYDMINRKVLRTQYIKLFVLDEADEMLSRGFKDQIQDVFKMLPPDVQVILLSATMPPDVLEVSRCFMRDPVSILVKKEELTLEGIKQFYVNVKQENWKLGTLCDLYDTLSITQSVIFCNTRRKVDQLTQEMSIHNFTVSAMHGDMEQRDREVIMKQFRSGSSRVLITTDLLARGIDVQQVSLVINYDLPSNRENYIHRIGRGGRFGRKGVAINFITDDDRRILKDIEQFYHTTIEEMPANIADLI
notes: eukaryotic translation initiation factor 4A (eIF4A), ATP-dependent RNA helicase, Drosophila; also called Myc-eIF4A; eukaryotic translation initiation factor 4A; source: S2 cells, purified (anti-c-Myc beads, c-Myc peptide elution)
